T1: extracellular domain of human BCMA (human, UniProt Q02223 1-54)
T1 construct: amine-linked to Octet AR2G tips; also called hsBCMA; BCMA (human)
T1 sequence: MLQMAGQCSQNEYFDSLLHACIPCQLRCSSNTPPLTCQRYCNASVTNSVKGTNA


Tests used:
[1] = biological target: T1, extracellular domain of human BCMA; experiment: Octet BLI; Fab 200 nM
[2] = biological target: T2, extracellular domain of rhesus monkey BCMA (rhesus monkey, UniProt F7FFA0 1-53); experiment: Octet BLI; Fab 200 nM
T2 construct: extracellular domain; also called RhBCMA
T2 sequence (F7FFA0 entry or part of it): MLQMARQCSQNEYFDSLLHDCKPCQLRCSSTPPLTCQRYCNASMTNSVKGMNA

Binder	Kd [1]	Kd [2]
AB200-R1a-Fab_VH48 (Fab, V domains shown) VH: QVQLVQSGAEVKKPGSSVKVSCKASGGTFSDYWMHWVRQAPGQGLEWMGATYRGHSDTYYNQRFKGRVTITADKSTSTAYMELSSLRSEDTAVYYCARGAIYHGYDVMDNWGQGTLVTVSS VL: DIQMTQSPSSLSASVGDRVTITCSATQDISNYLNWYQQKPGKAPKLLIYFTSNLQSGVPSRFSGSGSGTDFTLTISSLQPEDFATYYCQQYRKLPWTFGQGTKLEIKR	34.5 nM	25 nM
AB200-R1a-Fab_VH49 (Fab, V domains shown) VH: QVQLVQSGAEVKKPGSSVKVSCKASGGTFSNYWIHWVRQAPGQGLEWMGASYRGHSDTYYNQKFKGRVTITADKSTSTAYMELSSLRSEDTAVYYCARGAIYHGYDVIDNWGQGTLVTVSS VL: DIQMTQSPSSLSASVGDRVTITCSATQDISNYLNWYQQKPGKAPKLLIYFTSNLQSGVPSRFSGSGSGTDFTLTISSLQPEDFATYYCQQYRKLPWTFGQGTKLEIKR	6.72 nM	15.6 nM
AB200-R1a-Fab_VH52 (Fab, V domains shown) VH: QVQLVQSGAEVKKPGSSVKVSCKASGGSFSDYWMHWVRQAPGQGLEWMGATYRGHSTTYYNQKFKGRVTITADKSTSTAYMELSSLRSEDTAVYYCARGAIYHGYDVLDNWGQGTLVTVSS VL: DIQMTQSPSSLSASVGDRVTITCSATQDISNYLNWYQQKPGKAPKLLIYFTSNLQSGVPSRFSGSGSGTDFTLTISSLQPEDFATYYCQQYRKLPWTFGQGTKLEIKR	18 nM	24.6 nM
AB200-R1a-Fab_VH54 (Fab, V domains shown) VH: QVQLVQSGAEVKKPGSSVKVSCKASGGTFSNYWMHWVRQAPGQGLEWMGATYRGHGDTFYNQKFKGRVTITADKSTSTAYMELSSLRSEDTAVYYCARGAIYHGYDVLNNWGQGTLVTVSS VL: DIQMTQSPSSLSASVGDRVTITCSATQDISNYLNWYQQKPGKAPKLLIYFTSNLQSGVPSRFSGSGSGTDFTLTISSLQPEDFATYYCQQYRKLPWTFGQGTKLEIKR	12 nM	20.8 nM
AB200-R1a-Fab_VH56 (Fab, V domains shown) VH: QVQLVQSGAEVKKPGSSVKVSCKASGGTFSNYWIHWVRQAPGQGLEWMGATYRGHSDTYYNQKFRGRVTITADKSTSTAYMELSSLRSEDTAVYYCARGTIYHGYDVLDNWGQGTLVTVSS VL: DIQMTQSPSSLSASVGDRVTITCSATQDISNYLNWYQQKPGKAPKLLIYFTSNLQSGVPSRFSGSGSGTDFTLTISSLQPEDFATYYCQQYRKLPWTFGQGTKLEIKR	20.7 nM	18 nM
AB200-R1a-Fab_VH57 (Fab, V domains shown) VH: QVQLVQSGAEVKKPGSSVKVSCKASGGTYSNYYMHWVRQAPGQGLEWMGATYRGHSETYYNQKFKGRVTITADKSTSTAYMELSSLRSEDTAVYYCARGAIYHGYDVLDNWGQGTLVTVSS VL: DIQMTQSPSSLSASVGDRVTITCSATQDISNYLNWYQQKPGKAPKLLIYFTSNLQSGVPSRFSGSGSGTDFTLTISSLQPEDFATYYCQQYRKLPWTFGQGTKLEIKR	11.1 nM	12 nM
AB200-R1a-Fab_VH59 (Fab, V domains shown) VH: QVQLVQSGAEVKKPGSSVKVSCKATGGTFSNYAMHWVRQAPGQGLEWMGASYRGHSDTYYNQKFKGRVTITADKSTSTAYMELSSLRSEDTAVYYCARGAIYHGYDVLDNWGQGTLVTVSS VL: DIQMTQSPSSLSASVGDRVTITCSATQDISNYLNWYQQKPGKAPKLLIYFTSNLQSGVPSRFSGSGSGTDFTLTISSLQPEDFATYYCQQYRKLPWTFGQGTKLEIKR	26.2 nM	28.3 nM
AB200-R1a-Fab_VH8 (Fab, V domains shown) VH: QVQLVQSGAEVKKPGSSVKVSCKASGGTFSNYWMHWVRQAPGQGLEWMGATYRSHSDTYYNQKFKGRVTITADESTSTAYMELSSLRSEDTAVYYCARGAIFHGYDVLDNWGQGTLVTVSS VL: DIQMTQSPSSLSASVGDRVTITCSATQDISNYLNWYQQKPGKAPKLLIYFTSNLQSGVPSRFSGSGSGTDFTLTISSLQPEDFATYYCQQYRKLPWTFGQGTKLEIKR	0.948 nM	3.14 nM

From US20240327535A1 (EISAI R AND D MANAGEMENT, published 2024)
